Results on 140 substances are retold here after the supplement of paper PMC12042874.

± gives the uncertainty stated by the source.

This series is described as follows: amyloid nucleation score (Sup35N fusion, yeast selection) (log enrichment); library NNK1; higher = more nucleation; inactive = no reads after selection. The essentials: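 In psi-negative yeast, Sup35N fusions carrying peptides of 20 random codons were induced with 100 μM copper sulfate for 24 hours. The cells then grew 7 days at 30°C on medium lacking adenine and uracil, and plasmid inserts from input and output were Illumina-sequenced, excluding sequences with under 100 input reads. Nucleation score is the DiMSum log enrichment of output over input reads, centred on the mode score of non-aggregating sequences.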
As to AGMAWYTPVWVSGWGQPHTE, the amyloid nucleation score is -0.119 ± 0.38.
The result for AGVNWASHWHMDHMSGFVEW reads -0.684 ± 0.3.
Next, AGYGFKCMGYRLDLKTPFVY: 0.019 ± 0.59; AHCLLIALTCCRKNNKNVSC: 0.902 ± 0.44.
Next, AHFKYN: 0.271 ± 1.4.
In turn, AHRDWFS displayed an amyloid nucleation score of -0.553 ± 1.1.
Next, AHSALVTRTYSINIYFVSVE: 1.51 ± 0.21.
The result for AHYPFI reads 0.065 ± 1.5.
Next, AIDRVSYHVKVVRGHINSKF: “inactive”; AIGSCWTGLRNGT: 0.734 ± 1.1; AIMLGVGFKDGSIVYKLG: -0.354 ± 0.25.
Consider AIPRSVITRFLSCLAIEAWQ, for which the amyloid nucleation score turned out to be 0.627 ± 0.41.
AISLVAVRFMGMGEGVSDKN showed an amyloid nucleation score of 5.33 ± 0.1.
Next, AIVNMVLIHKERTVSVLIRA: -0.296 ± 0.58; AIVVKNDFTGSPRF: “inactive”; AIWVDVTLFTEKADWVSLRR: 2.42 ± 0.28.
Next, AIYIVVEI: -0.764 ± 1.2; AIYSPYRNLER: 0.233 ± 0.42.
Next, AKLAPCNSLVIDTY: 1.89 ± 0.4; AKRLFRRSTLMTSNTGLAVL: 0.287 ± 1.4; AKSKVLWESSVRQRS: -0.04 ± 0.62.
In the case of ALAPPKNSFLLMLALILMLL, the amyloid nucleation score turned out to be 0.093 ± 0.53.
As to ALCFCWNWLLCTDKGL, the amyloid nucleation score is 6.056 ± 0.048.
Next, ALCVDGDAVVTWDTILNEHF: -0.361 ± 0.97; ALCVWQRLSRLLLDTPWHVR: 0.806 ± 0.69.
Next, ALGLRILCMRRDSRWDSPCS: 0.353 ± 0.84.
The result for ALITFSRGWLAPLMGQQMVL reads “inactive”; that for ALKFPMWDSVEYGDCVGSLI, “inactive”.
ALLESGCWSMWFVSFRFELA yielded an amyloid nucleation score of -0.119 ± 0.76.
The substance ALLMGDFGCFLYTFGWFYAK displayed an amyloid nucleation score of -0.173 ± 0.41.
For ALLSSYLWK, the amyloid nucleation score was found to be 0.996 ± 0.45.
Consider ALLVPGILW, for which the amyloid nucleation score came to 3.34 ± 0.078.
Turning to ALNHRHTGTRK, the amyloid nucleation score is 0.782 ± 0.61.
ALNSQSGFKFERSMYLLVIG gave an amyloid nucleation score of 1.17 ± 0.43.
ALSFHYKNLVNT registered an amyloid nucleation score of 0.027 ± 0.49.
ALSSWLCGSG: the amyloid nucleation score amounted to 0.746 ± 0.9.
Regarding ALVTWWSYHSLMVSGCKVRS, the amyloid nucleation score was -0.299 ± 0.59.
Substance ALVYANPMTVWPSGSLTSVL returned an amyloid nucleation score of 0.685 ± 0.47.
Next, ALWCMRSTSRLGKCFGLVIY: -0.945 ± 0.77; ALYPPAGAGLRECRARSLSA: 0.341 ± 0.5; AMCCYGYVCCFYGSEVG: 5.51 ± 0.078.
AMGRLYS: the amyloid nucleation score was -0.41 ± 0.3.
AMGTLVIKGRYFYIFSASFG had an amyloid nucleation score of -1.52 ± 2.4.
Next, AMIPNVRVYVVVITNISFCV: 0.736 ± 0.26; AMNRHGLWKSSVSRGILFFS: 0.129 ± 0.35; AMWSSLIDMCNNG: 0.35 ± 0.25.
On to ANCFPLCRKNLGRSGVNNVR, for which the amyloid nucleation score is -0.452 ± 0.74.
For ANENLMNRYITNKRSCWCRW, the amyloid nucleation score is -0.728 ± 0.48.
The result for ANGADCYSLSKTEYYYGKTL reads -0.129 ± 1.6; that for ANISSGKFVRGSCENLARLR, -0.805 ± 0.59; that for ANMDWGRAMFWDGRVGMVRS, -0.645 ± 1.7.
ANSGTRIRFYICWFKSETTW had an amyloid nucleation score of 1.87 ± 0.1.
The result for ANSSFLYTSEHFRHVMAWFG reads -0.075 ± 0.68; that for APCQYSFVSVSYSTVNWLMT, 8.933 ± 0.071; that for APLEFWRGTVVAWLWYLCPF, 0.303 ± 0.41.
Next, APQSYVVVWFCVARKRCSWD: -0.303 ± 0.53.
APSAVS had an amyloid nucleation score of 0.876 ± 0.53.
The result for ARAVFLGEVGSAFFCRQSVW reads 0.273 ± 0.74; that for ARIMFVPWSLNDLWLGRFSM, -0.263 ± 0.45.
Next, ARLLSQVEAEASWSNTY: 0.568 ± 0.43.
Take ARRLFAAMLLRDWVPLTSQM: the amyloid nucleation score worked out at 1.27 ± 0.66.
Consider ARSSK, for which the amyloid nucleation score was -0.081 ± 0.23.
Next, ARSVKAIIKAICRGV: -0.055 ± 0.95; ARTKGSVAPTTLHANNGAWS: -0.053 ± 0.39.
The result for ARTRVTLSR reads -0.072 ± 0.98; that for ARVTVNGFLWCYNLGIRLDF, -0.779 ± 1.6.
With ARWLIEAVWSMYRFHYIGKR, the amyloid nucleation score was -0.722 ± 0.52.
Next, ASAWARNVVRSTVMKVSWVG: 0.543 ± 0.45; ASDMSCMQSNSYFNLCTYTM: 5.28 ± 0.064.
The result for ASFHNVQIGAYNMCKMNKGC reads 1.75 ± 0.34; that for ASKMALYPG, 0.366 ± 0.56.
With ASMID, the amyloid nucleation score was determined as 0.002 ± 0.27.
ASRYRKFTLWN returned an amyloid nucleation score of -0.466 ± 0.31.
For ASVILIVPINLYLYVVYVWI, the amyloid nucleation score stood at 3.2 ± 0.15.
For ATGINTGMTSNYSVMEMWGF, the amyloid nucleation score was 0.937 ± 0.48.
Take ATQRKDIA: the amyloid nucleation score entry was “inactive”.
The result for ATQSVFSKWVGGIRWWCVLL reads -0.65 ± 0.88; that for ATRFTR, 0.282 ± 0.5.
Next, ATTALAMGGSNDTMGYGVRC: 0.006 ± 0.4; ATYAYRFRLVSTIICLD: -0.222 ± 1.4.
The result for AVDMTWYIVVSMLHMLDASV reads 1.26 ± 0.76; that for AVGSDWDVYWVPRRMRMMCS, -1.84 ± 2.7.
AVIEYR yielded an amyloid nucleation score of -0.582 ± 0.32.
The result for AVMCYDNTSSNVSFN reads -0.279 ± 0.28; that for AVRVTLKL, 1.31 ± 0.2.
As for AVYGAECDCAWFTPYSVVAD, the amyloid nucleation score was 0.19 ± 0.36.
The result for AWGCMMAYFTGRLISEVSNS reads -0.529 ± 0.36; that for AWHEGFHCCN, 1.21 ± 0.31.
AWHTRPQTKTERPLRPVFRA showed an amyloid nucleation score of -0.733 ± 0.69.
The result for AWLLLEDWFVNRVILICGAK reads 0.027 ± 0.27; that for AYAILMRKMVIHADLLARC, -0.006 ± 0.7; that for AYCTLNR, 0.603 ± 0.36.
Turning to AYFMDASFNVFIDISFGGGL, the amyloid nucleation score came out at 8.115 ± 0.046.
As to AYIKNQ, the amyloid nucleation score is -0.305 ± 0.47.
AYKGMSLPDRIFKWLVWWHN gave an amyloid nucleation score of 0.008 ± 0.53.
AYKVSRKLKVLRFDFIEV yielded an amyloid nucleation score of -0.477 ± 0.71.
AYNIVDRSYLGSCKPESFVG showed an amyloid nucleation score of 0.469 ± 0.44.
Next, AYRNKETMCSLRTCRMVCSR: 0.206 ± 0.34; AYVKLILCLCRNLDWK: 2.98 ± 0.24; AYYVRGRNLLFVTIGYGYLC: -1 ± 1.
The result for CACVIRIFNLMVMWDILYWS reads 0.748 ± 1.2; that for CARYNASDRGEASYLIEHCG, -0.224 ± 0.57; that for CAYSNKE, 0.228 ± 0.34.
With CCFRRVTSRVPGRTMEGNCF, the amyloid nucleation score is -0.264 ± 1.2.
The result for CCGLSDLYDVAVERVGGLLN reads -1.26 ± 1.1; that for CCIVSGFALSSTTRMNVR, 1.77 ± 0.15; that for CCLGRR, -0.151 ± 0.52.
The result for CCTDIISQRIVGYLMVVC reads -0.755 ± 0.68.
CCWSYR showed an amyloid nucleation score of 2.51 ± 0.13.
Next, CDFAYRDWCHKMRYRYTRPC: 0.38 ± 0.39; CDKGPGCWVRMKQPGRLQMG: 3.46 ± 0.076.
For the substance CDRAIPLSIHTELMYRRSRG, the amyloid nucleation score was 1.11 ± 0.38.
Next, CEFGSGQALIYGYTMYTWTT: 0.703 ± 0.49; CESQMSRVDVLSCYMYGSVM: 0.303 ± 0.4; CEVRFLCWYGFIWRYN: -0.336 ± 0.74.
Next, CEWAAGRTWMKLGSSSTKTK: 3.87 ± 0.12.
As for CFCVD, the amyloid nucleation score stood at 1.01 ± 0.19.
CFDNIGGCFNPHDY displayed an amyloid nucleation score of -0.184 ± 0.43.
Next, CFDVQ: 2.29 ± 0.61.
The substance CFFFPPEYTKRLKSSSMVRR returned an amyloid nucleation score of -0.652 ± 0.9.
On to CFIGANPLRNQWMRSTRIVP, for which the amyloid nucleation score is 0.28 ± 0.61.
Next, CFLSLVWQHGHWWEGLESRL: 0.714 ± 0.53.
The result for CFMCTGAGCILNEMPRNLLG reads 7.793 ± 0.071; that for CFSKLEISFDESFR, -0.154 ± 0.28.
CFTKIFDDYSWCFGAGANQS came in with an amyloid nucleation score of 0.348 ± 0.28.
The result for CFVPY reads -0.109 ± 0.53; that for CFYMVSFEFR, 1.12 ± 0.34.
CGFKLVVVCFMK came in with an amyloid nucleation score of 3.47 ± 0.2.
The result for CGGTNILWVRSLPHGLDVHD reads -0.204 ± 0.39.
Next, CGLERTCRRGPSELTCTLYE: -0.201 ± 0.56; CGNSFTKLTTMLTRHHIADG: 0.437 ± 0.38; CGQLACVEPNWLSIKVMFRN: “inactive”.
Regarding CHCCEVSWCSVWKVCIYCNI, the amyloid nucleation score amounted to 5 ± 0.088.
CHCGVL came in with an amyloid nucleation score of 0.702 ± 1.1.
Next, CHEALDLMCHADTVIFALAE: -0.216 ± 0.57.
Next, CHEQHSASREYVDREYGKYS: “inactive”; CHSTGGT: -0.468 ± 1.9; CIDCYYRVCRFWSDSQAR: 0.552 ± 0.74.
The substance CIFGHWAFFDCNCYILYVLY displayed an amyloid nucleation score of 2.27 ± 0.23.
The result for CIGTHRIRFNSLLYRDQPII reads -0.15 ± 0.86.
